In article PMC3340011 (Biophysical Chemistry, 2011):
Read-outs that look alike come from different tables or passages of the source. Where no end group is shown, it is not given here.

Assays:
Test in all cases: fluorescence polarisation
[1] = target: T1, Full-length mammalian calmodulin, residues 1–148 (rat) (rat, UniProt P0DP29 1-149)
[2] = target: N-domain fragment of calmodulin, residues 1–80 (rat, UniProt P0DP29 2-81)
[3] = target: T1, Full-length mammalian calmodulin, …; remark: listed apart in the source
[4] = target: C-domain fragment of calmodulin, residues 76–148 (rat, UniProt P0DP29 77-149)

Kd [1] [nM]	Kd [2] [nM]	Kd [3] [nM]	Kd [4] [nM]	Binder
2500 ± 180	1100 ± 970	≤ 2	≤ 10	{5,6‑carboxyfluorescein}-ATFLIQEYFRKFKKRKEQGLVGKPSQ [Fl-IQ′_(1650): IQ′_(1650) (residues 1650–1675 of Cav1.2 CTT) fluoresceinated at the N-terminus]
4100 ± 370	≤ 70	≤ 2	≤ 70	{5,6‑carboxyfluorescein}-ELRAIIKKIWKRTSMKLLDQVV [Fl-C_(1614): C_(1614) (residues 1614–1635 of Cav1.2 CTT) fluoresceinated at the N-terminus]
–	–	≤ 2	–	{5,6‑carboxyfluorescein}-FNATLFALVRTALRIKTEGNLE [Fl-A_(1588): A_(1588) (residues 1588–1609 of Cav1.2 CTT) fluoresceinated at the N-terminus]
